Experimental findings from US20160032013A1 (Genentech, published 2016) are described below.

Test [1] concerns the target T1, Mouse RON-hIgG1 Fc (murine RON Sema/PSI/IPT1, natural leader + R33-V684, fused to human IgG1 Fc) (mouse).
T1 construct: also called mRON-hFc; murine RON-Fc
Put plainly: SPR (Biacore), anti-Fc chip; legend names murine RON-Fc; the sheet's scheme ('RON or MSP' over 'MSP-Fc or RON-Fc') and have the MSPβ-Fc fusion captured and soluble RON-His injected. The procedure: Binding kinetics of RON to MSP β-Fc fusion proteins and MSP proteins to RON-Fc fusions were determined using a Biacore 3000 optical biosensor equipped with a research-grade CM5 sensor chip (GE Healthcare). Amine coupling reagents, N-ethyl-N′-dimethylamino-propylcarbodiimide (EDC), N-hydroxy-succinimide (NHS) and sodium ethanolamine HCl, pH 8.5, were obtained from GE Healthcare. Standard coupling protocols were used to tether a rabbit anti-human IgG1 or rabbit anti-murine IgG2a (Jackson ImmunoResearch Laboratories) onto the biosensor surface. A biosensor chip that was subjected to the amine coupling procedure with no protein coupled was used to correct for non-specific binding. […] Various concentrations (500-3.9 nM, 2-fold dilution series) of RON-His, were injected in HBS-P buffer (10 mM HEPES, pH 7.5, 150 mM NaCl, 0.005% P20) at 25° C. with a flow rate of 30 μL/min and dissociation monitored for 240 sec. Between measurements, the biosensor surfaces were regenerated with a 120 s pulse of 10 mM glycine-HCl pH 1.5 followed by a 120 s wash with running buffer.
On the technique in general: SPR reads the build-up and loss of mass on a sensor chip optically.

Test [2] deals with T2, Recombinant human RON Sema/PSI (residues E25-P568) with C-terminal His-tag (human, UniProt Q04912 25-568).
T2 construct: Made in Trichoplusia ni insect cells
Put plainly: SPR using immobilized RON Sema/PSI at 25 C.

In test [3] the target is T3, Human RON-hIgG1 Fc (RON Sema/PSI/IPT1 fused to human IgG1 Fc) (human).
T3 construct: also called RON-Fc; hRON-Fc
T3 sequence (chain, as listed by the source limits assumed): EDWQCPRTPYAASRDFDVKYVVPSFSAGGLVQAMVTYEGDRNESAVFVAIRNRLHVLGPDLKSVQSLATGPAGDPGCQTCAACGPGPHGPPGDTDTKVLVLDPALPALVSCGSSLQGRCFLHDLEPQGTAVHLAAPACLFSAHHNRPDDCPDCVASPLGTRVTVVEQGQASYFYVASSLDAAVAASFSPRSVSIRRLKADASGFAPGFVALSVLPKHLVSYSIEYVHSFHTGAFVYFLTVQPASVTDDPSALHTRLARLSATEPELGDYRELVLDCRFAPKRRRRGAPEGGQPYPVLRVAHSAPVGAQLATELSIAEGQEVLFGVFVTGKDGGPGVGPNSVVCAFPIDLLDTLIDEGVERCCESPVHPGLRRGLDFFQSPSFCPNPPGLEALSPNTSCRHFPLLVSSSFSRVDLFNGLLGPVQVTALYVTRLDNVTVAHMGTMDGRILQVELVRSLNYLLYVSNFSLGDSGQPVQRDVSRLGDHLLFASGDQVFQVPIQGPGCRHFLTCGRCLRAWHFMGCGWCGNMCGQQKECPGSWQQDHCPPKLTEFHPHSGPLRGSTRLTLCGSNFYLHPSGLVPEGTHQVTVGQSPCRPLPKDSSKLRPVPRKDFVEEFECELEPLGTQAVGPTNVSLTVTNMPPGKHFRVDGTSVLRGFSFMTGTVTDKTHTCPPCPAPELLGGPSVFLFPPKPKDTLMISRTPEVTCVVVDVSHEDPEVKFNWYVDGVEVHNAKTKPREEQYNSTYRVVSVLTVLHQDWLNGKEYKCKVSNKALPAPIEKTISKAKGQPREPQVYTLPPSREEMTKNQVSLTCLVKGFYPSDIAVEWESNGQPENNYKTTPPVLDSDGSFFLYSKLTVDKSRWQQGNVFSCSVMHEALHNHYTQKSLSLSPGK
Put plainly: SPR capturing RON-Fc at 25 C. The procedure: To determine MSP protein binding kinetics to hRON-Fc or mRON-Fc fusion proteins, between 50 and 100 response units (RU) were captured on each of three immobilized anti-human Fc surfaces. Various concentrations (50-0.78 nM, 2-fold dilution series) of MSP, MSP β, MSP α or scMSP were injected in HBS-P buffer (10 mM HEPES, pH 7.5, 150 mM NaCl, 0.005% P20) at 25° C. with a flow rate of 30 μL/min and dissociation monitored for 4 min. Between measurements, the biosensor surfaces were regenerated with a 2 min pulse of 10 mM glycine-HCl pH 1.5.

Test [4] addresses T3, Human RON-hIgG1 Fc (RON Sema/PSI/IPT1 …). Put plainly: BLI using RON-Fc at 30 C. The protocol:
Real-time kinetic measurements of MSP binding to RON were conducted using an Octet RED384 (ForteBio, Inc). Samples or buffer were dispensed into 96-well microtiter plates (Greiner Bio-One North America, Inc.) at a volume of 200 μl per well. Anti-human IgG Fc Biosensors were used for the experiments. Each experiment consisted of three steps: incubation with ForteBio Kinetic buffer diluted 1:10 in PBS assay buffer to establish an equilibrium for 120 s (baseline), incubation with 10 μg/ml RON-Fc in assay buffer to coat the biosensor with binding target for 900 s (load), incubation with MSP, MSP β or scMSP in assay buffer containing various concentrations (75-4.7 nM, 2-fold dilution series) for 400 s (association), and incubation with assay buffer to measure the off-rate of MSP for 400 s (dissociation). Operating temperature was maintained at 30° C. Data were generated automatically by the Octet Data Acquisition 7.0 software. Each data set was fitted globally to a simple one-to-one binding model using ForteBio Analysis Software 7.0 to determine the kinetic parameters kₐ and kd. The equilibrium dissociation constants (KD) were then calculated as a ratio (koff/kₒₙ) of these rate constants.

T1 sequence (chain, as listed by the source limits assumed): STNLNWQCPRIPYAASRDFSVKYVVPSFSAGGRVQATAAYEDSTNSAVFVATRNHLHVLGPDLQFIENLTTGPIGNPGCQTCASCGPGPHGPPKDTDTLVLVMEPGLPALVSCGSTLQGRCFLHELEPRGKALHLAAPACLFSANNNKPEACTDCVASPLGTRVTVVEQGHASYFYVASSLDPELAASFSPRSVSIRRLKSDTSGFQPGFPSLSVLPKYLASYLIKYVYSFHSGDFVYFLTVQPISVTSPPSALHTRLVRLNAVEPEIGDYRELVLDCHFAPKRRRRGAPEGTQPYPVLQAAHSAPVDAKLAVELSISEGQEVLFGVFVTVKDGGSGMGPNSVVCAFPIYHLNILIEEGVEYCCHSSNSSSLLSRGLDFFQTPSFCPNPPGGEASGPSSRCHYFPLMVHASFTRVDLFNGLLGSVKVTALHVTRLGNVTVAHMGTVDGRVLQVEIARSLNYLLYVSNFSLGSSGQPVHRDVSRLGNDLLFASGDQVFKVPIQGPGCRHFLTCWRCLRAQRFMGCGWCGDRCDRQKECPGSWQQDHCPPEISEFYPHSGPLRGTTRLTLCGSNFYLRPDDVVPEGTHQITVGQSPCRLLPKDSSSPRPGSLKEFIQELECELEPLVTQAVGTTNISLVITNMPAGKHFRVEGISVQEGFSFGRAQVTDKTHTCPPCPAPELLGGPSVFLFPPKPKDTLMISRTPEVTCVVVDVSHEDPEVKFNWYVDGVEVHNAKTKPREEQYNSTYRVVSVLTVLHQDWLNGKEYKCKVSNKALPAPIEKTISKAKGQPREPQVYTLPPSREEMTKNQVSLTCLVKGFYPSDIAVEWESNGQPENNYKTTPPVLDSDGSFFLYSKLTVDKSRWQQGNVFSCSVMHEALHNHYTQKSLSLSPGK

B1: m.L8.m DANA (Fc fusion)
MSP β-linker-Fc fusion chain: VVGGHPGNSPWTVSLRNRQGQHFCGGSLVKEQWVLTARQCIWSCHEPLTGYEVWLGTINQNPQPGEANLQRVPVAKAVCGPAGSQLVLLKLERPVILNHHVALIALPPEQYVVPPGTKCEIAGWGESIGTSNNTVLHVASMNVISNQECNTKYRGHIQESEICTQGLVVPVGACEGDYGGPLACYTHDAWVLQGLIIPNRVCARPRWPAIFTRVSVFVDWINKVMQLEPRGPTIKPCPPCKCPAPNLLGGPSVFIFPPKIKDVLMISLSPIVTCVVVAVSEDDPDVQISWFVNNVEVHTAQTQTHREDYASTLRVVSALPIQHQDWMSGKEFKCKVNNKDLPAPIERTISKPKGSVRAPQVYVLPPPEEEMTKKQVTLTCMVTDFMPEDIYVEWTNNGKTELNYKNTEPVLDSDGSYFMYSKLRVEKKNWVERNSYSCSVVHEGLHNHHTTKSFSRTPGK
notes: As m8m, with the DANA mutations in the Fc; also called m8m (DANA); Mouse MSP β-L8-mIgG2a Fc (DANA)
Regarding B1, the Kd in test [1] stood at 5 nM.

B2: m.L12.m DANA (Fc fusion)
MSP β-linker-Fc fusion chain: VVGGHPGNSPWTVSLRNRQGQHFCGGSLVKEQWVLTARQCIWSCHEPLTGYEVWLGTINQNPQPGEANLQRVPVAKAVCGPAGSQLVLLKLERPVILNHHVALIALPPEQYVVPPGTKCEIAGWGESIGTSNNTVLHVASMNVISNQECNTKYRGHIQESEICTQGLVVPVGACEGDYGGPLACYTHDAWVLQGLIIPNRVCARPRWPAIFTRVSVFVDWINKVMQLEKKIEPRGPTIKPCPPCKCPAPNLLGGPSVFIFPPKIKDVLMISLSPIVTCVVVAVSEDDPDVQISWFVNNVEVHTAQTQTHREDYASTLRVVSALPIQHQDWMSGKEFKCKVNNKDLPAPIERTISKPKGSVRAPQVYVLPPPEEEMTKKQVTLTCMVTDFMPEDIYVEWTNNGKTELNYKNTEPVLDSDGSYFMYSKLRVEKKNWVERNSYSCSVVHEGLHNHHTTKSFSRTPGK
notes: As m12m, with the DANA mutations in the Fc; also called m12m (DANA); Mouse MSP β-L12-mIgG2a Fc (DANA)
With B2, in test [1], the Kd came to 9.7 nM.

B3: m.L4.m DANA (Fc fusion)
MSP β-linker-Fc fusion chain: VVGGHPGNSPWTVSLRNRQGQHFCGGSLVKEQWVLTARQCIWSCHEPLTGYEVWLGTINQNPQPGEANLQRVPVAKAVCGPAGSQLVLLKLERPVILNHHVALIALPPEQYVVPPGTKCEIAGWGESIGTSNNTVLHVASMNVISNQECNTKYRGHIQESEICTQGLVVPVGACEGDYGGPLACYTHDAWVLQGLIIPNRVCARPRWPAIFTRVSVFVDWINKVMQLETIKPCPPCKCPAPNLLGGPSVFIFPPKIKDVLMISLSPIVTCVVVAVSEDDPDVQISWFVNNVEVHTAQTQTHREDYASTLRVVSALPIQHQDWMSGKEFKCKVNNKDLPAPIERTISKPKGSVRAPQVYVLPPPEEEMTKKQVTLTCMVTDFMPEDIYVEWTNNGKTELNYKNTEPVLDSDGSYFMYSKLRVEKKNWVERNSYSCSVVHEGLHNHHTTKSFSRTPGK
notes: As m4m, with the DANA mutations in the Fc; also called m4m (DANA); Mouse MSP β-L4-mIgG2a Fc (DANA)
On to B3, for which the Kd in test [1] was determined as 13.8 nM.

B4: m.L16.m DANA (Fc fusion)
MSP β-linker-Fc fusion chain: VVGGHPGNSPWTVSLRNRQGQHFCGGSLVKEQWVLTARQCIWSCHEPLTGYEVWLGTINQNPQPGEANLQRVPVAKAVCGPAGSQLVLLKLERPVILNHHVALIALPPEQYVVPPGTKCEIAGWGESIGTSNNTVLHVASMNVISNQECNTKYRGHIQESEICTQGLVVPVGACEGDYGGPLACYTHDAWVLQGLIIPNRVCARPRWPAIFTRVSVFVDWINKVMQLEQVTDKKIEPRGPTIKPCPPCKCPAPNLLGGPSVFIFPPKIKDVLMISLSPIVTCVVVAVSEDDPDVQISWFVNNVEVHTAQTQTHREDYASTLRVVSALPIQHQDWMSGKEFKCKVNNKDLPAPIERTISKPKGSVRAPQVYVLPPPEEEMTKKQVTLTCMVTDFMPEDIYVEWTNNGKTELNYKNTEPVLDSDGSYFMYSKLRVEKKNWVERNSYSCSVVHEGLHNHHTTKSFSRTPGK
notes: As m16m, with the DANA mutations in the Fc; also called m16m (DANA); Mouse MSP β-L16-mIgG2a Fc (DANA)
For B4, the Kd in test [1] was determined as 6.6 nM.

B5: h.L16.m (Fc fusion)
MSP β-linker-Fc fusion chain: VVGGHPGNSPWTVSLRNRQGQHFCGGSLVKEQWILTARQCFSSCHMPLTGYEVWLGTLFQNPQHGEPSLQRVPVAKMVCGPSGSQLVLLKLERSVTLNQRVALISLPPEWYVVPPGTKCEIAGWGETKGTGNDTVLNVALLNVISNQECNIKHRGRVRESEMCTEGLLAPVGACEGDYGGPLACFTHNAWVLEGIIIPNRVCARSRWPAVFTRVSVFVDWIHKVMRLGQVTDKKIEPRGPTIKPCPPCKCPAPNLLGGPSVFIFPPKIKDVLMISLSPIVTCVVVDVSEDDPDVQISWFVNNVEVHTAQTQTHREDYNSTLRVVSALPIQHQDWMSGKEFKCKVNNKDLPAPIERTISKPKGSVRAPQVYVLPPPEEEMTKKQVTLTCMVTDFMPEDIYVEWTNNGKTELNYKNTEPVLDSDGSYFMYSKLRVEKKNWVERNSYSCSVVHEGLHNHHTTKSFSRTPGK
notes: Human MSP β joined by a 16-residue linker to murine IgG2a Fc; also called h16m; Human MSP β-L16-mIgG2a Fc
On to B5, for which the Kd in test [1] was 11.6 nM.

B6: h.L16.m DANA (Fc fusion)
MSP β-linker-Fc fusion chain: VVGGHPGNSPWTVSLRNRQGQHFCGGSLVKEQWILTARQCFSSCHMPLTGYEVWLGTLFQNPQHGEPSLQRVPVAKMVCGPSGSQLVLLKLERSVTLNQRVALISLPPEWYVVPPGTKCEIAGWGETKGTGNDTVLNVALLNVISNQECNIKHRGRVRESEMCTEGLLAPVGACEGDYGGPLACFTHNSWVLEGIIIPNRVCARSRWPAVFTRVSVFVDWIHKVMRLGQVTDKKIEPRGPTIKPCPPCKCPAPNLLGGPSVFIFPPKIKDVLMISLSPIVTCVVVAVSEDDPDVQISWFVNNVEVHTAQTQTHREDYASTLRVVSALPIQHQDWMSGKEFKCKVNNKDLPAPIERTISKPKGSVRAPQVYVLPPPEEEMTKKQVTLTCMVTDFMPEDIYVEWTNNGKTELNYKNTEPVLDSDGSYFMYSKLRVEKKNWVERNSYSCSVVHEGLHNHHTTKSFSRTPGK
notes: As h16m, with the D265A and N297A (DANA) mutations in the Fc; also called h16m (DANA); Human MSP β-L16-mIgG2a Fc (DANA)
Consider B6, for which the Kd in test [1] worked out at 10.9 nM.

B7: Human MSP β R689C (HGF leader + V484-G711 + C588S + C672A + R689C + His tag) (ligand)
chain: VVGGHPGNSPWTVSLRNRQGQHFCGGSLVKEQWILTARQCFSSCHMPLTGYEVWLGTLFQNPQHGEPSLQRVPVAKMVCGPSGSQLVLLKLERSVTLNQRVALISLPPEWYVVPPGTKCEIAGWGETKGTGNDTVLNVALLNVISNQECNIKHRGRVRESEMCTEGLLAPVGACEGDYGGPLACFTHNAWVLEGIIIPNRVCARSCWPAVFTRVSVFVDWIHKVMRLGHHHHHH
notes: This is an inference
In the case of B7, in test [2], the Kd turned out to be 9.1 nM, the koff came to 0.0142 s⁻¹ and the kon was determined as 1.3e+06 M⁻¹ s⁻¹. Besides, in test [3], the Kd is 9 nM, the koff came out at 0.0479 s⁻¹ and the kon was determined as 5.75e+06 M⁻¹ s⁻¹. In test [4], this molecule yielded a Kd of 9.1 nM, a koff of 0.0093 s⁻¹ and a kon of 1.75e+06 M⁻¹ s⁻¹.

Broadly, the Kd is the constant that tells how readily two partners part at equilibrium. As usually defined, the koff is a measure of how fast the partners let go of each other. As a reminder, the kon is the rate constant with which the complex forms.
